Publication PMC13376213, “Systematic discovery of motif-based interactions of the auxiliary domains of USP family deubiquitinases” (Nature Communications, 2026)

How the values were obtained:
FLAG-USP33 = assay: IP-MS of FLAG-USP33 and variants vs empty vector; format: cell-based, human; settings: IP-MS, FLAG-USP33 UBP mutant vs EV, comparison USP33_E86K_D90R/EV, Limma
Protocol: For transfection, 1x10^6 HEK293 cells were seeded in 10 cm dishes with DMEM, 10% FBS, 1% L-G (without antibiotic) medium, incubated at 37 °C, with 5 % CO2 for 24 h. Cells were transfected with a transfection mix containing […] of Opti-MEM (Thermo Fisher Scientific), 20 μL of PEI stock (1 mg/mL) and […] of the desired cDNA. For co-transfection, 2.5 μg of DNA of each plasmid was used. The mix was vortexed for 15 s and incubated at room temperature for 15–20 min. The transfection mix was added to the dish and gently mixed. Plates were incubated at 37 °C for 36–48 h before harvesting. For USP33 constructs, 5 μM Bortezomib (proteasome inhibitor) was added 4 hours before harvesting the cells.
FLAG fusion proteins were immunoprecipitated from HEK293 cells transfected with plasmids encoding the protein of interest using the anti-FLAG M2 affinity gel from Sigma-Aldrich. Cell pellets were lysed with 100–200 μL/per dish lysis buffer (Pierce RIPA buffer, 1X protease inhibitor (Roche), 50 unit/μL of Benzonase Nuclease) rotating at 4 °C for 30–45 min. […] The cell lysate was clarified by centrifugation at 17,000 x g, at 4 °C for 12 min, and the supernatant was transferred to a clean, pre-chilled low-binding Eppendorf tube. […] The IP samples were centrifuged at 6500 x g at 4 °C for 30 s. The supernatant containing the unbound proteins was transferred to a clean tube. The resin was washed three times with 500 μL of TBS, centrifuged at 6500 x g at 4 °C for 30 s. The bound FLAG fusion protein was eluted with 100 μL of 150 ng/μL 3X FLAG peptide (Sigma) in TBS and incubated in the cold room for 1 h or overnight. The tube was centrifuged at 6500 x g at 4 °C for 30 s; the eluted proteins were transferred to a clean tube. The eluted proteins were prepared for analysis by western blot or Mass Spectrometry.
Immunoprecipitation (IP) was carried out as described above; four technical replicates of each IP condition were performed, and the empty vector was used as a negative control. The eluted protein was processed following the Strap-micro protocol (Protifi). The IP elution containing 1–100 μg protein was 1:1 mixed with 2X lysis buffer (10% SDS, 100 mM TEAB pH 8.5). […] Samples were vortexed, mixed with 165 μL of 100 mM TEAB in 90% methanol, and passed through an S-Trap micro column at 4000 g for 30 s to trap the proteins. The column was washed with 150 μL of 100 mM TEAB in 90% methanol (at 4,000 x g for 30 seconds) three times. The S-Trap column was centrifuged again and transferred to a clean 2 mL tube for digestion with 20 μL of digestion buffer (1 μg trypsin per 10 μg sample in 50 mM TEAB), at 37 °C overnight in a thermomixer without shaking. The digested peptides were eluted with […] of 50 mM TEAB in water, […] of 0.2 % formic acid in water, and […] of 50 % acetonitrile in water, centrifuging at 4000 x g for 1 min each time. The three elutions were pooled in a low-binding tube, placed on dry ice until frozen, dried in a SpeedVac vacuum (Thermo Scientific), and proceeded with the LCMS analysis.
Eluted peptides were resuspended in water supplemented with 0.015% dodecyl maltoside and 0.1% formic acid and were injected on a Vanquish Neo UHPLC System operating in trap and elute mode coupled to an Orbitrap Astral Mass Spectrometer (Thermo Fisher Scientific). […] Eluted peptides were analyzed using data-independent acquisition mode on the mass spectrometer.
Peptides were searched against the Uniprot Swissprot Human database (released on 02/01/2023) supplemented with the USP20 and USP33 mutants using DiaNN (v1.9.0)[62] operating in library-free mode. Data filtering and statistical analysis were carried out in Python (v3.9.0) using the packages pandas, numpy, sklearn, scipy, rpy2, Plotnine, and Plotly and R (v4.4.3) using the package limma.
Protein groups identified with a single peptide or quantified in fewer than three replicates in at least 1 condition were filtered out. […]

FLAG-USP20 = assay: IP-MS of FLAG-USP20 and variants vs empty vector; format: cell-based, human
Protocol: For transfection, 1x10^6 HEK293 cells were seeded in 10 cm dishes with DMEM, 10% FBS, 1% L-G (without antibiotic) medium, incubated at 37 °C, with 5 % CO2 for 24 h. Cells were transfected with a transfection mix containing 970 mL of Opti-MEM (Thermo Fisher Scientific), 20 μL of PEI stock (1 mg/mL) and 5 mg of the desired cDNA. For co-transfection, 2.5 μg of DNA of each plasmid was used. The mix was vortexed for 15 s and incubated at room temperature for 15–20 min. The transfection mix was added to the dish and gently mixed. Plates were incubated at 37 °C for 36–48 h before harvesting. For USP33 constructs, 5 μM Bortezomib (proteasome inhibitor) was added 4 hours before harvesting the cells.
FLAG fusion proteins were immunoprecipitated from HEK293 cells transfected with plasmids encoding the protein of interest using the anti-FLAG M2 affinity gel from Sigma-Aldrich. […] The cell lysate was clarified by centrifugation at 17,000 x g, at 4 °C for 12 min, and the supernatant was transferred to a clean, pre-chilled low-binding Eppendorf tube. […] The IP samples were centrifuged at 6500 x g at 4 °C for 30 s. The supernatant containing the unbound proteins was transferred to a clean tube. The resin was washed three times with 500 μL of TBS, centrifuged at 6500 x g at 4 °C for 30 s. The bound FLAG fusion protein was eluted with 100 μL of 150 ng/μL 3X FLAG peptide (Sigma) in TBS and incubated in the cold room for 1 h or overnight. The tube was centrifuged at 6500 x g at 4 °C for 30 s; the eluted proteins were transferred to a clean tube. The eluted proteins were prepared for analysis by western blot or Mass Spectrometry.
Immunoprecipitation (IP) was carried out as described above; four technical replicates of each IP condition were performed, and the empty vector was used as a negative control. The eluted protein was processed following the Strap-micro protocol (Protifi). The IP elution containing 1–100 μg protein was 1:1 mixed with 2X lysis buffer (10% SDS, 100 mM TEAB pH 8.5). […] Samples were vortexed, mixed with 165 μL of 100 mM TEAB in 90% methanol, and passed through an S-Trap micro column at 4000 g for 30 s to trap the proteins. The column was washed with 150 μL of 100 mM TEAB in 90% methanol (at 4,000 x g for 30 seconds) three times. The S-Trap column was centrifuged again and transferred to a clean 2 mL tube for digestion with 20 μL of digestion buffer (1 μg trypsin per 10 μg sample in 50 mM TEAB), at 37 °C overnight in a thermomixer without shaking. The digested peptides were eluted with 40 mL of 50 mM TEAB in water, 40 mL of 0.2 % formic acid in water, and 40 mL of 50 % acetonitrile in water, centrifuging at 4000 x g for 1 min each time. The three elutions were pooled in a low-binding tube, placed on dry ice until frozen, dried in a SpeedVac vacuum (Thermo Scientific), and proceeded with the LCMS analysis.
Protein groups identified with a single peptide or quantified in fewer than three replicates in at least 1 condition were filtered out. Protein group intensities were median normalized and missing values were imputed using a Gaussian distribution centered on the median with a downshift of 1.8 and width of 0.3 (relative to the standard deviation).

B1: BCLAF3 (protein, UniProt A2AJT9 1-711, looked up)
BCLAF1 and THRAP3 family …: MARSRSRSPRWKHRSLSPVPRNAEHYKQRHSHGHYGCEYRKDPKRPVAWRMDSEKHGQSKPRIPSRGNIYYQSYEHRSPSPNIRNSLENVYMYKPHRGYSPGRGDSNRRAQYMPKYSEGIPYKEHERNSYPQKVQGGHSPDDHRVRGSGKGGKPPQRSIADSFRFEGKWHEDELRHQRIQEEKYSQSTRRGSEDFETRSSFQKRYPEDRDFRKYGHTSKRPKDVERYESREPARNPKWKPEHSLPPYQEDTDQWNLGPQTYRHAEREHPETSSATKVSYDYRHKRPKLLDGDQDFSDGRTQKYCKEEDRKYSFQKGPLNRELDCFNTGRGRETQDGQVKEPFKPSKKDSIACTYSNKNDVDLRSSNDKWKEKIKKEGDCRKESNSSSNQLDKSQKLPDVKPSPINLRKKSLTVKVDVKKTVDTFRVASSYSTERQMSHDLVAVGRKSENFHPVFEHLDSTQNTENKPTGEFAQEIITIIHQVKANYFPSPGITLHERFSTMQDIHKADVNEIPLNSDPEIHRRIDMSLAELQSKQAVIYESEQTLIKIIDPNDLRHDIERRRKERLQNEDEHIFHIASAAERDDQNSSFSKVKNVHTDGFQKPTHFIKSNFRKCIEKPYMNYTTQRKDIITHKPFEVEGNHRNTRVRPFKSNFRGGRCQPNYKSGLVQKSLYIQAKYQRLRFTGPRGFITHKFRERLMRKKKEYTDVATGI
log2_FC (FLAG-USP33): 4.934 | log2_FC (FLAG-USP20; IP-MS, FLAG-USP20-ΔUBP vs EV, comparison bh_2 Sample_Limma_ImpMedInt_USP20_UBP_domain/EV): 4.725 | log2_FC (FLAG-USP20; IP-MS, FLAG-USP20 vs EV, comparison USP20_wt/EV, Limma): 4.955 | log2_FC (FLAG-USP20; Table S7b USP20 MS_and_motif, bait USP20): 4.955
